# From the supplement of paper PMC10219994
# ± gives the standard deviation of the averaged measurements.
# B1: library; a variant is named by its letters at N, in order (parent)
# chain: GAGACCGCAACTGAAAAGTTGTGGNNNNNATAGTGAGTCGCTGCCTGCAAAGACACAACT
# Variants of: B1
# Experiment: ligation selection enrichment (abundance after / before one-round selection) (fold); higher = more template-directed ligation activity
# Conditions: with T7Psub CACGGAUGCUAAUACGACUCACUAUA; MgCl2 25 mM; 42 °C; 4 h; pH 8.5
# Outline: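 RNA ligase library with five randomized core positions (0.75 μM, T7-transcribed) was reacted with RNA substrate (6 μM) in 50 mM EPPS pH 8.5, 25 mM MgCl2 at 42 °C for 4 h, in two independent experiments. Ligated products were PAGE-purified, reverse transcribed, barcoded by PCR and MiSeq-sequenced. Reads with quality score ≥30 at all randomized positions were counted. Enrichment was abundance after ligation divided by abundance before ligation.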
row,Variant,ligation selection enrichment
1,GAGACCGCAACTGAAAAGTTGTGGTCGTTATAGTGAGTCGCTGCCTGCAAAGACACAACT,0.205 ± 0.12
2,GAGACCGCAACTGAAAAGTTGTGGACGTTATAGTGAGTCGCTGCCTGCAAAGACACAACT,0.149 ± 0.0019
3,GAGACCGCAACTGAAAAGTTGTGGCCGTTATAGTGAGTCGCTGCCTGCAAAGACACAACT,0.149 ± 0.04
4,GAGACCGCAACTGAAAAGTTGTGGTCTAAATAGTGAGTCGCTGCCTGCAAAGACACAACT,0.0912 ± 0.0077
5,GAGACCGCAACTGAAAAGTTGTGGGCTAAATAGTGAGTCGCTGCCTGCAAAGACACAACT,0.176 ± 0.0063
6,GAGACCGCAACTGAAAAGTTGTGGACTAAATAGTGAGTCGCTGCCTGCAAAGACACAACT,0.168 ± 0.031
7,GAGACCGCAACTGAAAAGTTGTGGCCTAAATAGTGAGTCGCTGCCTGCAAAGACACAACT,0.148 ± 0.0065
8,GAGACCGCAACTGAAAAGTTGTGGTCTACATAGTGAGTCGCTGCCTGCAAAGACACAACT,0.152 ± 0.03
9,GAGACCGCAACTGAAAAGTTGTGGGCTACATAGTGAGTCGCTGCCTGCAAAGACACAACT,0.15 ± 0.04
10,GAGACCGCAACTGAAAAGTTGTGGCCTACATAGTGAGTCGCTGCCTGCAAAGACACAACT,0.14 ± 0.03
11,GAGACCGCAACTGAAAAGTTGTGGACTACATAGTGAGTCGCTGCCTGCAAAGACACAACT,0.128 ± 0.011
12,GAGACCGCAACTGAAAAGTTGTGGACTAGATAGTGAGTCGCTGCCTGCAAAGACACAACT,0.403 ± 0.037
13,GAGACCGCAACTGAAAAGTTGTGGGCTAGATAGTGAGTCGCTGCCTGCAAAGACACAACT,0.375 ± 0.11
14,GAGACCGCAACTGAAAAGTTGTGGCCTAGATAGTGAGTCGCTGCCTGCAAAGACACAACT,0.356 ± 0.004
15,GAGACCGCAACTGAAAAGTTGTGGTCTAGATAGTGAGTCGCTGCCTGCAAAGACACAACT,0.285 ± 0.051
16,GAGACCGCAACTGAAAAGTTGTGGTCTATATAGTGAGTCGCTGCCTGCAAAGACACAACT,0.102 ± 0.035
17,GAGACCGCAACTGAAAAGTTGTGGGCTATATAGTGAGTCGCTGCCTGCAAAGACACAACT,0.196 ± 0.035
18,GAGACCGCAACTGAAAAGTTGTGGCCTATATAGTGAGTCGCTGCCTGCAAAGACACAACT,0.149 ± 0.059
19,GAGACCGCAACTGAAAAGTTGTGGACTATATAGTGAGTCGCTGCCTGCAAAGACACAACT,0.119 ± 0.05
20,GAGACCGCAACTGAAAAGTTGTGGCCTCAATAGTGAGTCGCTGCCTGCAAAGACACAACT,0.348 ± 0.055
21,GAGACCGCAACTGAAAAGTTGTGGGCTCAATAGTGAGTCGCTGCCTGCAAAGACACAACT,0.244 ± 0.1
22,GAGACCGCAACTGAAAAGTTGTGGACTCAATAGTGAGTCGCTGCCTGCAAAGACACAACT,0.217 ± 0.031
23,GAGACCGCAACTGAAAAGTTGTGGCCTCCATAGTGAGTCGCTGCCTGCAAAGACACAACT,0.347 ± 0.0045

row,Variant,ligation selection enrichment
1,GAGACCGCAACTGAAAAGTTGTGGACTCCATAGTGAGTCGCTGCCTGCAAAGACACAACT,0.321 ± 0.011
2,GAGACCGCAACTGAAAAGTTGTGGGCTCCATAGTGAGTCGCTGCCTGCAAAGACACAACT,0.301 ± 0.0054
3,GAGACCGCAACTGAAAAGTTGTGGTCTCCATAGTGAGTCGCTGCCTGCAAAGACACAACT,0.267 ± 0.12
4,GAGACCGCAACTGAAAAGTTGTGGCCTCGATAGTGAGTCGCTGCCTGCAAAGACACAACT,0.55 ± 0.064
5,GAGACCGCAACTGAAAAGTTGTGGACTCGATAGTGAGTCGCTGCCTGCAAAGACACAACT,0.535 ± 0.046
6,GAGACCGCAACTGAAAAGTTGTGGGCTCGATAGTGAGTCGCTGCCTGCAAAGACACAACT,0.533 ± 0.037
7,GAGACCGCAACTGAAAAGTTGTGGTCTCGATAGTGAGTCGCTGCCTGCAAAGACACAACT,0.368 ± 0.12
8,GAGACCGCAACTGAAAAGTTGTGGCCTCTATAGTGAGTCGCTGCCTGCAAAGACACAACT,0.266 ± 0.11
9,GAGACCGCAACTGAAAAGTTGTGGACTCTATAGTGAGTCGCTGCCTGCAAAGACACAACT,0.248 ± 0.12
10,GAGACCGCAACTGAAAAGTTGTGGGCTCTATAGTGAGTCGCTGCCTGCAAAGACACAACT,0.165 ± 0.064
11,GAGACCGCAACTGAAAAGTTGTGGGCTGAATAGTGAGTCGCTGCCTGCAAAGACACAACT,0.315 ± 0.015
12,GAGACCGCAACTGAAAAGTTGTGGACTGAATAGTGAGTCGCTGCCTGCAAAGACACAACT,0.286 ± 0.048
13,GAGACCGCAACTGAAAAGTTGTGGCCTGAATAGTGAGTCGCTGCCTGCAAAGACACAACT,0.26 ± 0.038
14,GAGACCGCAACTGAAAAGTTGTGGTCTGAATAGTGAGTCGCTGCCTGCAAAGACACAACT,0.256 ± 0.023
15,GAGACCGCAACTGAAAAGTTGTGGTCTGCATAGTGAGTCGCTGCCTGCAAAGACACAACT,0.143 ± 0.0073
16,GAGACCGCAACTGAAAAGTTGTGGACTGCATAGTGAGTCGCTGCCTGCAAAGACACAACT,0.137 ± 0.025
17,GAGACCGCAACTGAAAAGTTGTGGGCTGCATAGTGAGTCGCTGCCTGCAAAGACACAACT,0.1333 ± 0.00076
18,GAGACCGCAACTGAAAAGTTGTGGCCTGCATAGTGAGTCGCTGCCTGCAAAGACACAACT,0.128 ± 0.01
19,GAGACCGCAACTGAAAAGTTGTGGGCTGGATAGTGAGTCGCTGCCTGCAAAGACACAACT,0.462 ± 0.073
20,GAGACCGCAACTGAAAAGTTGTGGACTGGATAGTGAGTCGCTGCCTGCAAAGACACAACT,0.421 ± 0.0057
21,GAGACCGCAACTGAAAAGTTGTGGTCTGGATAGTGAGTCGCTGCCTGCAAAGACACAACT,0.417 ± 0.035
22,GAGACCGCAACTGAAAAGTTGTGGCCTGGATAGTGAGTCGCTGCCTGCAAAGACACAACT,0.381 ± 0.061
